The record followed here is paper PMC11927175, “Global profiling of CPL3-mediated alternative splicing reveals regulatory mechanisms of DGK5 in plant immunity and phosphatidic acid homeostasis” (Genome Biology, 2025).

Assay [1] has as its target T1, six histidine-tagged DGK5β (…OL KINASE 5, constitutive full-length isoform) (Arabidopsis thaliana, UniProt Q9C5E5 1-509).
T1 construct: …OL KINASE 5, isoform DGK5β, Arabidopsis thaliana, AT2G20900; printed size 57.4 kDa; Ser506 lies in the CBD; also called HIS-DGK5β; source: E. coli BL21, purified (Ni-NTA agarose)
T1 sequence (looked up): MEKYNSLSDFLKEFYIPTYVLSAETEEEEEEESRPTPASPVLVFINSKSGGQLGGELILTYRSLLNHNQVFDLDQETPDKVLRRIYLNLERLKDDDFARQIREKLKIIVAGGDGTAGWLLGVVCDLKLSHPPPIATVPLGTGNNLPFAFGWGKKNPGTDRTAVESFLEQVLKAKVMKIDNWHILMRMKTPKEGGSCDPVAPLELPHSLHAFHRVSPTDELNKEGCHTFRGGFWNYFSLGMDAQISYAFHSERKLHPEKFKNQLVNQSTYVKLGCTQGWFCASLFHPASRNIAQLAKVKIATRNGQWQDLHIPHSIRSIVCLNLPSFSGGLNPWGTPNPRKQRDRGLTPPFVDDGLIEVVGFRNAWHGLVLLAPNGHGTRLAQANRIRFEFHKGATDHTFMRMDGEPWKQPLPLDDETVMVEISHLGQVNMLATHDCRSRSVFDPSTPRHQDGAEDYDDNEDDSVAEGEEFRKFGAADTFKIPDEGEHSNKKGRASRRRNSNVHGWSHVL
In words: pull-down; GST-BIK1 immobilised on glutathione agarose beads, blocked with BSA, incubated with 2 μg HIS-DGK5β or HIS-DGK5α in 300 μl incubation buffer (20 mM Tris-HCl pH 7.5, 100 mM NaCl, 0.1 mM EDTA, 0.2% Triton X-100) at 4 °C for 1 h; washed with 300 mM NaCl buffer; immunoblot with α-HIS and α-GST. The conditions noted are these: both partners purified.

For assay [2], the target named is T2, glutathione S-transferase (GST)-tagged BIK1 (BOTRYTIS-INDUCED KINASE 1) (Arabidopsis thaliana (Mouse-ear cress), UniProt O48814).
T2 chain: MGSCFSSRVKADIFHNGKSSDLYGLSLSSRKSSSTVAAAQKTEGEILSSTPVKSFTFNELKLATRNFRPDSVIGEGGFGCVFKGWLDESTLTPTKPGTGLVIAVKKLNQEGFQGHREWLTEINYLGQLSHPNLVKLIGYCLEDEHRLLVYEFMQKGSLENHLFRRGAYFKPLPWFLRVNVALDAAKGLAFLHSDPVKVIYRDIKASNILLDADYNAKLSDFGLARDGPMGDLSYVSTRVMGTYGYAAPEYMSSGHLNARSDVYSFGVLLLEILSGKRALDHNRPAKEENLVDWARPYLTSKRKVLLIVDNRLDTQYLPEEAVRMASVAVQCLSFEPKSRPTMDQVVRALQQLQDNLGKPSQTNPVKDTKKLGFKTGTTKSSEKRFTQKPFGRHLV
The experiment in a line: GST pull-down.

B1: glutathione S-transferase (GST)-tagged BIK1 (BOTRYTIS-INDUCED KINASE 1) (enzyme, Arabidopsis thaliana, UniProt O48814 1-395, looked up)
chain: T2 chain
notes: BOTRYTIS-INDUCED KINASE 1 (BIK1), receptor-like cytoplasmic kinase, Arabidopsis thaliana, AT2G39660; also called GST-BIK1; source: E. coli BL21, purified (glutathione agarose)
Take B1: the binding result in assay [1] is given as “binds”.

B2: six histidine-tagged DGK5β (…OL KINASE 5, constitutive full-length isoform) (protein)
chain: T1 sequence (looked up)
B2: in assay [2], the binding result is on record as “binds”.
